Results published in patent publication US20090136526A1 (Seagen, published 2009).

T1: CD19 on CD19-positive tumor cell lines (human, UniProt P15391 20-556)
T1 sequence (looked up): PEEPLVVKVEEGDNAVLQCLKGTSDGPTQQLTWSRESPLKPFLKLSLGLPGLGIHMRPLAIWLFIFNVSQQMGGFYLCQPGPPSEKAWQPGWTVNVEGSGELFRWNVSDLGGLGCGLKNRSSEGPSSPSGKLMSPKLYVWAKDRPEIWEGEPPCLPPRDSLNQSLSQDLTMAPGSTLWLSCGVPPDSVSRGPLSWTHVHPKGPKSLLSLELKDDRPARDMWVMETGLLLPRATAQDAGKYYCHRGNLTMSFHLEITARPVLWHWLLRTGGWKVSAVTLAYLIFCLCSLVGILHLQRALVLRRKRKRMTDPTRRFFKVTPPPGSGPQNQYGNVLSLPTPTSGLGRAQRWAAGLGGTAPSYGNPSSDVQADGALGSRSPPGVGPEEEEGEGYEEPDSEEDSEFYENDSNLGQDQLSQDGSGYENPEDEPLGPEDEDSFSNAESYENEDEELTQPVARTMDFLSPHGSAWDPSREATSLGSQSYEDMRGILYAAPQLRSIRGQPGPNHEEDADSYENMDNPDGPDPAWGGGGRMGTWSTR


Experiments:
[1] = target: T1, CD19 on CD19-positive tumor cell lines; test: cell-based or functional assay
[2] = target: CD19 on CD19-positive tumor cell lines (human) (UniProt P15391); test: cell-based or functional assay

Row | internalization kinetics by FACS, CD21 low Ramos cells [1] [%] | Molecule | IC50 (ng/mL) of anti-CD19 antibody linked with 2°-ADC, cell viability (resazurin, 96 h), CA46 cells [1] [ng/mL] | IC50 (ng/mL) of anti-CD19 antibody linked with 2°-ADC, cell viability (resazurin, 96 h), HS Sultan cells [1] [ng/mL] | IC50 (ng/mL) of anti-CD19 antibody linked with 2°-ADC, cell viability (resazurin, 96 h), MC 116 cells [1] [ng/mL] | IC50 (ng/mL) of anti-CD19 antibody linked with 2°-ADC, cell viability (resazurin, 96 h), Ramos cells [1] [ng/mL] | IC50 (ng/mL) of anti-CD19 antibody linked with 2°-ADC, cell viability (resazurin, 96 h), Toledo cells [1] [ng/mL] | IC50 (ng/mL) of anti-CD19 antibody linked with 2°-ADC, cell viability (resazurin, 96 h), HT cells [1] [ng/mL] | IC50 (ng/mL) of anti-CD19 antibody linked with 2°-ADC, cell viability (resazurin, 96 h), CA46 cells [2] [ng/mL] | IC50 (ng/mL) of anti-CD19 antibody linked with 2°-ADC, cell viability (resazurin, 96 h), HS Sultan cells [2] [ng/mL] | IC50 (ng/mL) of anti-CD19 antibody linked with 2°-ADC, cell viability (resazurin, 96 h), MC 116 cells [2] [ng/mL] | IC50 (ng/mL) of anti-CD19 antibody linked with 2°-ADC, cell viability (resazurin, 96 h), Ramos cells [2] [ng/mL] | IC50 (ng/mL) of anti-CD19 antibody linked with 2°-ADC, cell viability (resazurin, 96 h), Toledo cells [2] [ng/mL]
1 |  | B-C3 (antibody) | 17 | 234 | 195 | 13 | 359 |  |  |  |  |  | 
2 | 50 | hBU12 (antibody) |  |  |  |  |  |  |  |  |  |  | 
3 |  | HIB19 (antibody) | 1 | 97 | 188 | 1 | 1000 | 1000 |  |  |  |  | 
4 | 50 | hBU12-vcMMAE (antibody) |  |  |  |  |  |  |  |  |  |  | 
5 |  | LT19 (antibody) | 4 | 112 | 192 | 1 | 584 | 111 |  |  |  |  | 
6 |  | cBU12 (antibody, V domains shown) VH: QVTLKESGPGILQPSQTLSLTCSFSGFSLSTSGMGVGWIRQPSGKGLEWLAHIWWDDDKRYNPALKSRLTISKDTSSNQVFLKIASVDTADTAAYYCARMELWSYYFDYWGQGTTLTVSS VL: ENVLTQSPAIMSASPGEKVTMTCSASSSVSYMHWYQQKSSTSPKLWIYDTSKLASGVPGRFSGSGSGNSHFLTISSMEAEDVATYYCFQGSVYPFTFGSGTKLEIKR | 7 | 100 | 186 | 5 | ~1000 | 238 |  |  |  |  | 
7 |  | SJ25-C1 (antibody, from another filing, V domains shown) VH: EVKLQQSGAELVRPGSSVKISCKASGYAFSSYWMNWVKQRPGQGLEWIGQIYPGDGDTNYNGKFKGQATLTADKSSSTAYMQLSGLTSEDSAVYFCARKTISSVVDFYFDYWGQGTTVTVSS VL: DIELTQSPKFMSTSVGDRVSVTCKASQNVGTNVAWYQQKPGQSPKPLIYSATYRNSGVPDRFTGSGSGTDFTLTITNVQSKDLADYFCQQYNRYPYTSGGGTKLEI |  |  |  |  |  |  | 4 | 150 | 200 | 3 | 512
